Experimental data as given in patent US5493008A, “Two non-contiguous regions contribute to nidogen binding to a single EGF-like motif of the laminin γ1 chain” (The University Of Virginia Patent Foundation, priority 1994, dated 1996).
Where two headings read alike, the source gives them in different places. Values belong to the molecule of their own block, whether it stands above or below them. Where no end group is shown, it is not given here.

Tests used:
[1] = biological target: T1, recombinant nidogen (Mus musculus (Mouse)) (UniProt P10493); assay: radioligand competition assay: inhibitor varied, 0.2 nM recombinant nidogen, 125I-laminin fragment P1
T1 sequence: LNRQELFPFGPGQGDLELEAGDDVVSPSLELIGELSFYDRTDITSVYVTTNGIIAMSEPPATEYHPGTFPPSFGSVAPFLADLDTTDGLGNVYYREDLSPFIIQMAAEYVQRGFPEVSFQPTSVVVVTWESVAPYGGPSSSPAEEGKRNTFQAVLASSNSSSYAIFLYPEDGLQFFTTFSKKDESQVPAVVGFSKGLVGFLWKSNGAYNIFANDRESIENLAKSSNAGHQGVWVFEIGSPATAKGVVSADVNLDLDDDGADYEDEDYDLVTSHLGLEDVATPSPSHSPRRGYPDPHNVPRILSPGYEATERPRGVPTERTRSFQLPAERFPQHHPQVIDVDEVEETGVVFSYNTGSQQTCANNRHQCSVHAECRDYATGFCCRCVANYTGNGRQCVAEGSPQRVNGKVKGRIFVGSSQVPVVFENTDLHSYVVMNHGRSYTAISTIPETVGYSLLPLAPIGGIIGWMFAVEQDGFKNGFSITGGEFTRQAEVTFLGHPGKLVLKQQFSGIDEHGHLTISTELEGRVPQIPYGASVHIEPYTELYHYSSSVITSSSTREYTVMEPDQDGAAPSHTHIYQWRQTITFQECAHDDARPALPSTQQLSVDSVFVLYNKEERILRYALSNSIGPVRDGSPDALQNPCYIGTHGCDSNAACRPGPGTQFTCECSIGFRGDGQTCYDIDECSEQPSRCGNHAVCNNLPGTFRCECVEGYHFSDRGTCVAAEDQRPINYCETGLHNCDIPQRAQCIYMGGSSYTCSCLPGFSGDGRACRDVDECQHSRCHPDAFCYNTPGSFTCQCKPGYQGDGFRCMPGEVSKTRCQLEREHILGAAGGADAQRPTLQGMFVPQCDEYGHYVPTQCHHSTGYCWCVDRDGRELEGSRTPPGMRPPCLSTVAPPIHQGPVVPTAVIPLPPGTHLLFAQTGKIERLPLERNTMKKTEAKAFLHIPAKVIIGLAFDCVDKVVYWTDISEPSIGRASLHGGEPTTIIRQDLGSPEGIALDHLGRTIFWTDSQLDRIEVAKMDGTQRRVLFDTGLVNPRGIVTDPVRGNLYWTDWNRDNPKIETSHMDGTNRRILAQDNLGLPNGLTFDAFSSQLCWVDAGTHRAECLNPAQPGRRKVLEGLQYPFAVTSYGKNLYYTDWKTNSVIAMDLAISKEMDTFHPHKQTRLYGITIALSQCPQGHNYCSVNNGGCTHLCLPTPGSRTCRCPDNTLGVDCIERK

[2] = biological target: T1, recombinant nidogen (Mus musculus (Mouse)); assay: radioligand competition assay
nidogen = biological target: T2, nidogen (Mus musculus, UniProt P10493); assay: Radioligand competition assay: inhibition of 125I-laminin fragment P1 binding to nidogen; settings: laminin-nidogen binding competition
T2 sequence (P10493 29-1245): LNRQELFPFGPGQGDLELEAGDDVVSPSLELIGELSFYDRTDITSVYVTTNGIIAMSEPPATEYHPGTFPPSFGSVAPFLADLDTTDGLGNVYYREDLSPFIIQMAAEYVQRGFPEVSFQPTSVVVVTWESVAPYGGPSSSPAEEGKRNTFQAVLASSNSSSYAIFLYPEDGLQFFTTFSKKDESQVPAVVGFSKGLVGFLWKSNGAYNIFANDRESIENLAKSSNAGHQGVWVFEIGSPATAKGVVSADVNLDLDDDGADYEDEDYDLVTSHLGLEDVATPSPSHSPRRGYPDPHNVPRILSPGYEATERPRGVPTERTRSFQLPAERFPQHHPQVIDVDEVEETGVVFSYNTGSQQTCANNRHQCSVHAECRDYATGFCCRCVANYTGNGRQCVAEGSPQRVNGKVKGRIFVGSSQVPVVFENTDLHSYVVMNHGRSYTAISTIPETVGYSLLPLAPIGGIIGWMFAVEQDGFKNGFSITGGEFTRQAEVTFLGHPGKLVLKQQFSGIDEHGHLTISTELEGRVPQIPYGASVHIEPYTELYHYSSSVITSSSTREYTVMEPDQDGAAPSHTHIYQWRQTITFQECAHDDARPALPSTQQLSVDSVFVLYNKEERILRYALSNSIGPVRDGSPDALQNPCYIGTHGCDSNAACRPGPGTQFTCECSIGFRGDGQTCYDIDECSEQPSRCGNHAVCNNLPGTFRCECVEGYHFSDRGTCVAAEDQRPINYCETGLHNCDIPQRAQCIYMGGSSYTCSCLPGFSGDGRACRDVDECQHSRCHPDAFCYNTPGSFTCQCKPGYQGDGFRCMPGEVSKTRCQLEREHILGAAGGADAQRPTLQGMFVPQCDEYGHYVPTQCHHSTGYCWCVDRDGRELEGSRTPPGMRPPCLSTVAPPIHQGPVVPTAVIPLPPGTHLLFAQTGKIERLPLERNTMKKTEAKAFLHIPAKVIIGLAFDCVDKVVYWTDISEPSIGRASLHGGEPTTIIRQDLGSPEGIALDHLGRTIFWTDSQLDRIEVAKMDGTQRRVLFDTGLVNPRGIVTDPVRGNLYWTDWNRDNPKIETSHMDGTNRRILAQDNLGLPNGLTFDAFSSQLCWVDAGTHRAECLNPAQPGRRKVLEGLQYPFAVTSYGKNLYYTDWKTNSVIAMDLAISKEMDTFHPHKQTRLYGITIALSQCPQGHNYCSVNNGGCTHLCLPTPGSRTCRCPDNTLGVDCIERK
Protocol: A radioligand competition assay was used for measurement of relative binding affinities (Mann K. et al. (1988), Eur. J. Biochem., 178, 71-80; Fox, J. W. et al. (1991), EMBO J., 10, 3137-3146). A fixed concentration of recombinant nidogen (0.2 nM) was incubated overnight at 4° C. with inhibitors at varying concentrations, followed by the addition of ^125 I-labeled laminin fragment P1 (0.01 nM; 10,000-20,000 c.p.m.) for the same incubation period. Bound and non-bound fragment P1 was then separated by antibodies against nidogen. Competitor concentrations causing 50% inhibition (IC50) were determined from dose-response profiles. […] IC50 values compared from different assays were normalized to a single fragment P1 value.

recombinant nidogen [3] = biological target: T3, recombinant nidogen (Mus musculus (Mouse), UniProt P10493); assay: radioligand competition assay: inhibitor varied, 0.2 nM recombinant nidogen, 125I-laminin fragment P1
T3 sequence: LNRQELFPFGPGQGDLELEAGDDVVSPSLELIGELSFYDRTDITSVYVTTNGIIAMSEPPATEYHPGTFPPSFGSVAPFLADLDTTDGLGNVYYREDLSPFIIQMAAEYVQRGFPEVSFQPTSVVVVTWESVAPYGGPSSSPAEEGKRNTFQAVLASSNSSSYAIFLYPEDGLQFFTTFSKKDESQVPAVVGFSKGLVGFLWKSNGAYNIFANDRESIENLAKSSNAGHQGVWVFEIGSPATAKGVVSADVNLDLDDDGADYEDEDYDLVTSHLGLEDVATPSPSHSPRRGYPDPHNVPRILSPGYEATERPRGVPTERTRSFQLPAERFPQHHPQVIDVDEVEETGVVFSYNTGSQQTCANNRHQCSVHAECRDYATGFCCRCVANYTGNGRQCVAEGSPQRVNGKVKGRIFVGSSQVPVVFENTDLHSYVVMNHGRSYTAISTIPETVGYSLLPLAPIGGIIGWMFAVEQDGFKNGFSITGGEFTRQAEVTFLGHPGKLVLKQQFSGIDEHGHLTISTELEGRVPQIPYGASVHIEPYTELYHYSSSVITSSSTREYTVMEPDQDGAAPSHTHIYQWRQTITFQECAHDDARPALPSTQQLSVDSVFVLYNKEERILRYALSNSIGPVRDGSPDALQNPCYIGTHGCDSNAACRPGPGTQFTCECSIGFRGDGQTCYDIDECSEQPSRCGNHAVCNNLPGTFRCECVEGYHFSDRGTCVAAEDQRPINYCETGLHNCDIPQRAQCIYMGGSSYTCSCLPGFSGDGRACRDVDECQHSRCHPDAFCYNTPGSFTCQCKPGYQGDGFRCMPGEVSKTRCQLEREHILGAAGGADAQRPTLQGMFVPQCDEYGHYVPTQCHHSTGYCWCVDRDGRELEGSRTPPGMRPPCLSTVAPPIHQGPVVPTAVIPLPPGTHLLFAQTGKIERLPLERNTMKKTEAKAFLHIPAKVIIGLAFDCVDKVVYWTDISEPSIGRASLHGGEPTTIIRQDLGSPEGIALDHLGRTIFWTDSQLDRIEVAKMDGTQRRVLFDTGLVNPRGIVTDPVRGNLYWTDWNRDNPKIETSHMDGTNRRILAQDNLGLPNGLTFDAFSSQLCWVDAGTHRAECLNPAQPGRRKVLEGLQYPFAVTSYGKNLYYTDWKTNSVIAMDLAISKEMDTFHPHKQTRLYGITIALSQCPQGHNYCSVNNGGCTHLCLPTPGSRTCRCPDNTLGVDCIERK
Protocol: (§1) A radioligand competition assay was used for measurement of relative binding affinities (Mann K. et al. (1988), Eur. J. Biochem., 178, 71–80; Fox, J. W. et al. (1991), EMBO J., 10, 3137–3146). A fixed concentration of recombinant nidogen (0.2 nM) was incubated overnight at 4° C. with inhibitors at varying concentrations, followed by the addition of ^125I-labeled laminin fragment P1 (0.01 nM; 10,000–20,000 c.p.m.) for the same incubation period. Bound and non-bound fragment P1 was then separated by antibodies against nidogen.

recombinant nidogen [4] = biological target: T3, recombinant nidogen; assay: as above; remark: listed apart in the source
Protocol: as §1

recombinant nidogen [5] = biological target: T3, recombinant nidogen; assay: as above; remark: listed apart in the source
Protocol: as §1

Molecule: synthetic loop a,b, non-oxidized (792-815) (peptide)
IC50 [1]: 400 nM
fold higher IC50 than fragment P1 [2]: 5000 fold

Molecule: T1, 792-809 (peptide)
IC50 [1]: 500 nM

Molecule: γ1III3-5Δ4 (from UniProt P02468)
IC50 [1]: > 3200 nM

Molecule: CC[C@H](C)[C@H](NC(=O)[C@H](CC(N)=O)NC(=O)[C@H](CC(=O)O)NC(=O)[C@H](CC(N)=O)NC(=O)[C@H](CS)NC(=O)[C@H](CCC(N)=O)NC(=O)[C@H](CS)NC(=O)[C@@H]1CCCN1)C(=O)N[C@@H](CC(=O)O)C(=O)N1CCC[C@H]1C(=O)N[C@@H](CC(N)=O)C(=O)N[C@@H](C)C(=O)N[C@H](C(=O)NCC(=O)N[C@@H](CC(N)=O)C(=O)N[C@@H](CS)C(=O)N[C@@H](CC(N)=O)C(=O)N[C@@H](CCCNC(=N)N)C(=O)O)C(C)C [T1, PCQCNDNTDPNAVGNCNR]
inhibitory activity in words (nidogen): undiminished activity

Molecule: IOPNAVGN (S, 799-806) (peptide)
fold loss in activity [2]: 2 fold

B1: E1, 797-815 (peptide)
peptide: DNIDPNAVGNCNRLTGECL
IC50 (recombinant nidogen [3]): 530 nM

B2: NIDPNAVGN (S, 798-806) (peptide)
peptide: NIDPNAVGN
IC50 (recombinant nidogen [3]): 600 nM

B3: E3, 792-796 (peptide)
peptide: PCQCN
binding result (recombinant nidogen [3]): no binding (tested: >96,000 nM)

B4: heptapeptide NIDPNAV (S, 798-804) (peptide)
peptide: NIDPNAV
IC50 (recombinant nidogen [3]): 800 nM
IC50 (recombinant nidogen [4]): 900 nM

Next, values leading:

IC50 [1]: 80 nM
fold higher activity than synthetic oxidized loop a,b [2]: 3 fold
further fold decrease in activity against modification of Tyr819 [2]: 30 fold
Molecule: γ1III4ab3cd (from UniProt P02468)

IC50 [1]: 1100 nM
Molecule: γ1III3ab4cd (from UniProt P02468)

IC50 (recombinant nidogen [5]): 0.05 nM
B5: γ1III4 (other)
chain: PCQCNDNIDPNAVGNCNRLTGECLKCIYNTAGFYCDRCKEGFFGNPLAPNPADKCK
modifications: disulfide (positions not given here); not fully specified (bridges); also: four disulfide-bonded loops, pairing not given here

IC50 (recombinant nidogen [5]): 1000 nM
B6: γ1III4D800-N (other)
chain: PCQCNDNINPNAVGNCNRLTGECLKCIYNTAGFYCDRCKEGFFGNPLAPNPADKCK

IC50 (recombinant nidogen [5]): 0.06 nM
B7: γ1III4Y825-A (other)
chain: PCQCNDNIDPNAVGNCNRLTGECLKCIYNTAGFACDRCKEGFFGNPLAPNPADKCK
